In article PMC4900556, “Connexin43 Forms Supramolecular Complexes through Non-Overlapping Binding Sites for Drebrin, Tubulin, and ZO-1” (PLoS ONE, 2016):

Legend:
[1] = target: 15N-labeled Cx43CT^234-382 Y265D, GST tag cleaved (UniProt P08050 234-382, Y265D, 15N-labeled); assay: NMR; Area 3 (residues K303, N312, S314)
[2] = target: T1, 15N-labeled Cx43-CT^234-382 (WT), GST tag cleaved (UniProt P08050 234-382, 15N-labeled); assay: NMR titration; 15N-HSQC, 600 MHz; 15N-labeled Cx43-CT constant at 50 μM in 1X PBS pH 7.5, unlabeled Drb^1-300 added from 50 to 700 μM; KD by nonlinear fitting of the decrease in signal intensity of at least three residues of each area; conditions: both partners purified
T1 construct: Construct used in the NMR titrations; source: E. coli BL21 DE3, purified (glutathione agarose), GST tag cleaved on the beads with Turbo 3C
T1 sequence (P08050 234-382): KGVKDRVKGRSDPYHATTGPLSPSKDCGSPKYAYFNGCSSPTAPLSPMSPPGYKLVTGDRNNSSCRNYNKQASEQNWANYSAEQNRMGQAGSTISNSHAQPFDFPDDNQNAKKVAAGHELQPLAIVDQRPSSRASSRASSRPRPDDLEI

[3] = target: 15N-labeled Cx43CT^234-382 Y265D, GST tag cleaved (UniProt P08050); assay: as above
Sequence of 15N-labeled Cx43CT^234-382 Y265D, GST tag cleaved (UniProt P08050) (P08050 234-382 Y265D): as the sequence (P08050 234-382) above, with Y32D counted along it

B1: Drebrin A 1–300 (Drb^1-300), untagged (domain or fragment, UniProt Q9QXS6 1-300, looked up)
chain: MAGVSFSGHRLELLAAYEEVIREESAADWALYTYEDGSDDLKLAASGEGGLQELSGHFENQKVMYGFCSVKDSQAALPKYVLINWVGEDVPDARKCACASHVAKVAEFFQGVDVIVNASSVEDIDAGAIGQRLSNGLARLSSPVLHRLRLREDENAEPVGTTYQKTDAAVEMKRINREQFWEQAKKEEELRKEEERKKALDARLRFEQERMEQERQEQEERERRYREREQQIEEHRRKQQSLEAEEAKRRLKEQSIFGDQRDEEEESQMKKSESEVEEAAAIIAQRPDNPREFFRQQERV
notes: Drebrin A residues 1-300; also called drebrin amino acids 1–300; N-terminal fragment of drebrin; source: E. coli Rosetta cells, purified on glutathione-agarose column, GST tag digested and captured with a Thrombin kit
In the case of B1, the Kd [1] is reported as 466 µM, the “KD of Area 1 (264–275)” value [2] is reported as 283 µM and the “KD of Area 2 (282–290)” value [2] is reported as 279 µM. For the same binder, the “KD of Area 3 (299–321)” value [2] was 344 µM and the KD of Area 3 [3] was 500 µM.
